Laboratory results reported in paper PMC9122904, “Insights into the client protein release mechanism of the ATP-independent chaperone Spy” (Nature Communications, 2022).

How the values were obtained:
Test in all cases: BLI; Octet RED96; client biotinylated and loaded on streptavidin sensors; Spy or Spy variant in solution at 0.25, 0.5, 1, 1.5 and 2 μM; 40 mM HEPES, 150 mM NaCl, pH 7.5; Kd calculated as koff/kon
Settings in all cases: both partners purified
Spy D26A = biological target: T1, Spy D26A (UniProt P77754 24-161, D26A)
T1 construct: source: E. coli BL21 (DE3), purified (Ni-NTA, cation exchange, SEC); not shown: His6, N-terminal, cleaved; SUMO, N-terminal, cleaved
T1 sequence (looked up): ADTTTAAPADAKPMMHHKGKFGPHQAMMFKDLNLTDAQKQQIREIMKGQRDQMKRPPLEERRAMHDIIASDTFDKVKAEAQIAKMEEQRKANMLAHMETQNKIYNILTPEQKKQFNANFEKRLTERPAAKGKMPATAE

Spy_(29-127) = biological target: T2, Spy_(29-127) (UniProt P77754 52-150)
T2 construct: Spy chaperone, residues 29-127; source: E. coli BL21 (DE3), purified (Ni-NTA, cation exchange, SEC); not shown: His6, N-terminal, cleaved; SUMO, N-terminal, cleaved
T2 sequence (looked up): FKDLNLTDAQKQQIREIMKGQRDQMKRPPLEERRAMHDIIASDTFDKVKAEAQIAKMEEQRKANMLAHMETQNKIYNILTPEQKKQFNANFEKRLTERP
How it was run: (§1)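 Association was recorded with an Octet RED96 as streptavidin sensors carrying client proteins, biotinylated with EZ-link NHS-biotin at a 1:1 molar ratio, sat in 40 mM HEPES, 150 mM NaCl, pH 7.5 with 0.25 to 2 μM of the analyte protein (0.25, 0.5, 1, 1.5 and 2 μM). Dissociation followed after transfer to analyte-free buffer. Both wavelength-shift phases were fitted in SigmaPlot 12.0 to obtain koff and the observed association rate, whose dependence on analyte concentration yielded kon, with Kd defined as koff divided by kon.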

Spy_(21-124) = biological target: T3, Spy_(21-124) (UniProt P77754 44-147)
T3 construct: source: E. coli BL21 (DE3), purified (Ni-NTA, cation exchange, SEC); not shown: His6, N-terminal, cleaved; SUMO, N-terminal, cleaved
T3 sequence (looked up): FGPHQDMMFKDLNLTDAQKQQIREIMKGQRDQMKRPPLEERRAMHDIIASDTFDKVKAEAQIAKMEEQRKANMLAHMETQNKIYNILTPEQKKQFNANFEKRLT
How it was run: as §1

Spy_(29-124) = biological target: T4, Spy_(29-124) (UniProt P77754 52-147)
T4 construct: also called termini-free Spy; source: E. coli BL21 (DE3), purified (Ni-NTA, cation exchange, SEC); not shown: His6, N-terminal, cleaved; SUMO, N-terminal, cleaved
T4 sequence (looked up): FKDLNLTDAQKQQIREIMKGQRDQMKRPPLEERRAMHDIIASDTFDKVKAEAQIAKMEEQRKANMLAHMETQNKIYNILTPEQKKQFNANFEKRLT
How it was run: as §1

Spy_(21-130) = biological target: T5, Spy_(21-130) (UniProt P77754 44-153)
T5 construct: Spy chaperone, residues 21-130; source: E. coli BL21 (DE3), purified (Ni-NTA, cation exchange, SEC); not shown: His6, N-terminal, cleaved; SUMO, N-terminal, cleaved
T5 sequence (looked up): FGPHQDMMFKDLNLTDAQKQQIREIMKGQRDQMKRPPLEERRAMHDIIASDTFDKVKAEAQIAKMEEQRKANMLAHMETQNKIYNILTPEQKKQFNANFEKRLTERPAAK
How it was run: as §1

Spy_(1-124) = biological target: T6, Spy_(1-124) (UniProt P77754 24-147)
T6 construct: source: E. coli BL21 (DE3), purified (Ni-NTA, cation exchange, SEC); not shown: His6, N-terminal, cleaved; SUMO, N-terminal, cleaved
T6 sequence (looked up): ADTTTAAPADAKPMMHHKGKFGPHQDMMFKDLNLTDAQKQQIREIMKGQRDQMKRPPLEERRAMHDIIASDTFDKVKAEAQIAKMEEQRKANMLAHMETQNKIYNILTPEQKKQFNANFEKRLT
How it was run: as §1

Spy_(27-127) = biological target: T7, Spy_(27-127) (UniProt P77754 50-150)
T7 construct: Spy chaperone, residues 27-127; source: E. coli BL21 (DE3), purified (Ni-NTA, cation exchange, SEC); not shown: His6, N-terminal, cleaved; SUMO, N-terminal, cleaved
T7 sequence (looked up): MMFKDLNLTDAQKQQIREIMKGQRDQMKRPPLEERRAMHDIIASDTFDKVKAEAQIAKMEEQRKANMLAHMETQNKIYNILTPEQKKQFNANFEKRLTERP
How it was run: as §1

[1] = biological target: T8, Spy wild type (Spy_(1-138)) (UniProt P77754 24-161)
T8 construct: Spy, ATP-independent periplasmic chaperone; also called WT; wt; source: E. coli BL21 (DE3), purified (Ni-NTA, cation exchange, SEC); not shown: His6, N-terminal, cleaved; SUMO, N-terminal, cleaved
T8 sequence (looked up): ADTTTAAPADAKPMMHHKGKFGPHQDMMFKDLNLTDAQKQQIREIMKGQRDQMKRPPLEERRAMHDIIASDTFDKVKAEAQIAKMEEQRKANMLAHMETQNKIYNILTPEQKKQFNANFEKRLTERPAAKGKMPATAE
How it was run: as §1

- koff (Spy D26A): 0.0876 s⁻¹
- kon (Spy_(29-127)): 309000 M⁻¹ s⁻¹
- kon (Spy_(21-124)): 267000 M⁻¹ s⁻¹
- kon (Spy_(29-124)): 273000 M⁻¹ s⁻¹
- kon (Spy_(21-130)): 187000 M⁻¹ s⁻¹
- kon (Spy_(1-124)): 203000 M⁻¹ s⁻¹
- kon (Spy_(27-127)): 312000 M⁻¹ s⁻¹
- kon [1]: 276000 M⁻¹ s⁻¹
B1: Im7 H40W L53A I54A (natural protein)
chain: MELKNSISDYTEAEFVQLLKEIEKENVAATDDVLDVLLEWFVKITEHPDGTDAAYYPSDNRDDSPEGIVKEIKEWRAANGKPGFKQG
modifications: biotin (EZ-link NHS-biotin, 1:1 molar ratio of biotin to protein)
notes: Im7 (colicin E7 immunity protein) with H40W L53A I54A; Spy was made with an N-terminal His6-SUMO tag that was cleaved; also called Im7AAW; partially folded client; source: purified by a similar procedure to Spy
